Results from paper PMC6590076.

Target: 14-3-3β (UniProt P31946)
Assay: in vitro pull-down, immobilized phosphoprotein

Substance	binding against the reference (reference: FOXO3A with Ser253 (supD tRNA), sites S253)	binding against the reference (reference: FOXO3A with Ser413 (supD tRNA), sites S413)
FOXO3A (from UniProt O43524) FOXO3A with pSer253 (SepOTSλ)	stronger	–
FOXO3A (from UniProt O43524) FOXO3A with pSer413 (SepOTSλ)	–	stronger
